Test system: MS2 coat protein
Test: apparent KD of MS2 coat protein; higher = weaker reporter binding
Details: Eterna round: R107
Outline: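 Illumina sequencing clusters served as templates for on-chip transcription of the designed RNA switches. SNAP-549-labelled MS2 coat protein was then titrated in twofold steps from 0.7 or 1.5 nM to 3 µM, allowing 0.8–1.5 h per step at first and 10–20 min per step later. The buffer held 100 mM Tris-HCl pH 7.5, 80 mM KCl and 4 mM MgCl2, without or with constant ligand. Apparent KD is the median per design of normalised cluster binding-curve fits.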

[1] = input ligand: theophylline 20 uM
[2] = input ligand: tryptophan 2.4 mM
[3] = input ligand: theophylline 2 mM

Sequence: AGCCCUGUGCUAGAUACCAGCUACAUGAGGAUCACCCAUGUGCGUCAGAAAUGACUGUGUAGCCCUUGGCAGCUAAAUGCAUGUA [Exclusion - Theophylline B (Freestyle 7)]
- apparent KD of MS2 coat protein (input ligand: arginine 13.2 mM): 13.8 nM
- apparent KD of MS2 coat protein [1]: 16.5 nM
- apparent KD of MS2 coat protein [2]: 11 nM

Sequence: AUAAGUAAUGUCUCGUGUAUUAUUACAGAUACCAGACUAUCCUAUGUCCCUUGGCAGCUGGAUUACAUGAGGAUCACCCAUGUUG [#10 Exclusion-TheophyllineA]
- apparent KD of MS2 coat protein (input ligand: arginine 13.2 mM): 21.5 nM
- apparent KD of MS2 coat protein [1]: 25.3 nM
- apparent KD of MS2 coat protein [2]: 22 nM

Sequence: ACGGAUCGGAAACGAUCCGCGGCGAGGGUGCGAGGACCGGUACGGCCGCCACUCGGCUAACAUGAGGAUCACCCAUGUCCGAAGA [ETA NuPACK+Vienna+Vienna2 #9]
- apparent KD of MS2 coat protein (input ligand: arginine 13.2 mM): 43.6 nM
- apparent KD of MS2 coat protein (input ligand: none): 126 nM
- apparent KD of MS2 coat protein [1]: 137 nM
- apparent KD of MS2 coat protein [3]: 117 nM
- apparent KD of MS2 coat protein [2]: 172 nM

Sequence: UGUAUGGACUGAAGGAGCGGGUUGAUAACCUGAGGAUCACCCAGGUAAAAGGCGAAAGCCACCCAGGUAGGUCGCAGUCCAUACU
- apparent KD of MS2 coat protein (input ligand: arginine 13.2 mM): 16.3 nM
- apparent KD of MS2 coat protein (input ligand: none): 18.1 nM
- apparent KD of MS2 coat protein [1]: 21.6 nM
- apparent KD of MS2 coat protein [3]: 19.7 nM
- apparent KD of MS2 coat protein [2]: 20 nM

Sequence: AAACAUGAGGAUCACCCAUGUAUACUUAGACGAGGACCGGUACGGCCGCCACUCGAACUUCAAGAUUUGGCGGAUAAUGUAUGUA [JR_Nu22_ExcTryptoA_Sub023]
- apparent KD of MS2 coat protein (input ligand: arginine 13.2 mM): 9.74 nM
- apparent KD of MS2 coat protein (input ligand: none): 10.9 nM
- apparent KD of MS2 coat protein [1]: 16.1 nM
- apparent KD of MS2 coat protein [3]: 11.9 nM
- apparent KD of MS2 coat protein [2]: 11.9 nM

Sequence: GACAUGAGGAUCACCCAUGUACCGCGAGAAGGAGCGCGGAUAAACGCAGGUAGGUCGCUCGUGGGCUCACAUUCAAUCGUAAGCU [Azaesisma]
- apparent KD of MS2 coat protein (input ligand: arginine 13.2 mM): 50.9 nM
- apparent KD of MS2 coat protein (input ligand: none): 98.6 nM
- apparent KD of MS2 coat protein [1]: 116 nM
- apparent KD of MS2 coat protein [3]: 165 nM
- apparent KD of MS2 coat protein [2]: 77.7 nM

Sequence: GUAUGAGUUGACUGUGAGACUGGCGUGGAAGGAGCGCACGGAGGUGCAGGUAGGUCGCCACAUGAGGAUCACCCAUGUCAGGCCG [Ceedtila]
- apparent KD of MS2 coat protein (input ligand: arginine 13.2 mM): 32.4 nM
- apparent KD of MS2 coat protein (input ligand: none): 38 nM
- apparent KD of MS2 coat protein [1]: 56.4 nM
- apparent KD of MS2 coat protein [3]: 111 nM
- apparent KD of MS2 coat protein [2]: 53 nM

Sequence: ACAUGAGGAUCACCCAUGUGGAGCAGGGUACGAGGACCGGUACGGCCGCCACUCGAGCGUUAUGACGAGUGAAUGGCAACGAUGU [whbob_X-Trypto_A_V1.0]
- apparent KD of MS2 coat protein (input ligand: arginine 13.2 mM): 9.93 nM
- apparent KD of MS2 coat protein (input ligand: none): 10.5 nM
- apparent KD of MS2 coat protein [1]: 15.9 nM
- apparent KD of MS2 coat protein [3]: 12.5 nM
- apparent KD of MS2 coat protein [2]: 12.1 nM

Sequence: ACUAGGCUCGGAAACGAGCCUAGGACAGAAGGAGCGUGGAUUAACACAGGUAGGUCGCUGACAUGAGGAUCACCCAUGUAUUAUU [SSAA #2]
- apparent KD of MS2 coat protein (input ligand: arginine 13.2 mM): 24.5 nM
- apparent KD of MS2 coat protein (input ligand: none): 24.9 nM
- apparent KD of MS2 coat protein [1]: 38.6 nM
- apparent KD of MS2 coat protein [3]: 25.3 nM
- apparent KD of MS2 coat protein [2]: 28.9 nM

Sequence: CACUACAUGAGGAUCACCCAUGUAUACUGACGAGGACCGGUACGGCCGCCACUCGAACCGAAACCGACUUCAUUCUGUGUACCAU [theeternabot_sameState_MS2_Trp_A_26]
- apparent KD of MS2 coat protein (input ligand: arginine 13.2 mM): 15 nM
- apparent KD of MS2 coat protein [1]: 22.7 nM
- apparent KD of MS2 coat protein [3]: 19.3 nM

Sequence: AAAUAAAUACAUGAGGAUCACCCAUGUGAAGGAGCGCCCGUUAGGGCAGGUAGGUCGCACAUGAAAGGGAAGCGAAAGAAAUAAU [ArgEX 15 #OpenEnded]
- apparent KD of MS2 coat protein (input ligand: arginine 13.2 mM): 26.8 nM
- apparent KD of MS2 coat protein (input ligand: none): 20.2 nM
- apparent KD of MS2 coat protein [1]: 24.5 nM
- apparent KD of MS2 coat protein [3]: 16.5 nM
- apparent KD of MS2 coat protein [2]: 20.3 nM

Sequence: ACGAUAGCACACGAGGAUCACCCGUGUGAUACCAGCCUGGAAACAGGCCCUUGGCAGCACACAAUAAAAGUGUAACUAUCGAAUA [TheoAX4 #MicroSwitchBubble #AlternativeMS2]
- apparent KD of MS2 coat protein (input ligand: arginine 13.2 mM): 40.2 nM
- apparent KD of MS2 coat protein (input ligand: none): 54.2 nM
- apparent KD of MS2 coat protein [1]: 128 nM
- apparent KD of MS2 coat protein [3]: 161 nM
- apparent KD of MS2 coat protein [2]: 56.1 nM

Sequence: AGCUCGCAAUCCUCAGCGUCAAAGACGCGUCGAGGACCGGUACGGCCGCCACUCGACAAGAGGAUCACCCUUGUCUAAGCGAGCA [TrypAX 5 #SwitchBubble #AlternativeMS2 #MS2Late #CuTurnoff]
- apparent KD of MS2 coat protein (input ligand: arginine 13.2 mM): 78.5 nM
- apparent KD of MS2 coat protein [1]: 355 nM
- apparent KD of MS2 coat protein [3]: 588 nM
- apparent KD of MS2 coat protein [2]: 114 nM

Sequence: UGGUACAUGAGGAUCACCCAUGUUCCAGAUACCAGUGUCCCGGUGCACCCUUGGCAGCUGGUGGUACAUGAGGAUCACCCAUGUG [Exclusion Theophylline A GF13]
- apparent KD of MS2 coat protein (input ligand: arginine 13.2 mM): 17.9 nM
- apparent KD of MS2 coat protein (input ligand: none): 42.2 nM
- apparent KD of MS2 coat protein [1]: 56.3 nM
- apparent KD of MS2 coat protein [3]: 73.1 nM
- apparent KD of MS2 coat protein [2]: 37.3 nM

Sequence: GUGGGACAUGAGGAUCACCCAUGUGACGAUACCAGUCAAUUGAUGGACCCUUGGCAGCGUUGGUAUUGCGGGUAGGCGAGAUAAG [theeternabot_sameState_MS2_Theo_A_3]
- apparent KD of MS2 coat protein (input ligand: arginine 13.2 mM): 21.4 nM
- apparent KD of MS2 coat protein [1]: 60.2 nM
- apparent KD of MS2 coat protein [2]: 40.4 nM

Sequence: CGGACAUGAGGAUCACCCAUGUACACUGAAGGAGCGUCGAGAACGACAGGUAGGUCGCAGGUUGAGGAAGGUGAUGCUCAAGAAG [Exclusion Arginine A GF4]
- apparent KD of MS2 coat protein (input ligand: arginine 13.2 mM): 25.1 nM
- apparent KD of MS2 coat protein (input ligand: none): 44.7 nM
- apparent KD of MS2 coat protein [1]: 71.9 nM
- apparent KD of MS2 coat protein [3]: 57.4 nM
- apparent KD of MS2 coat protein [2]: 50.6 nM

Sequence: CCCAAAUAGAUAUUUGGGAUUUUACUCGAAGGAGCGUCAUAGUAGGCAGGUAGGUCGCGAGACAUGAGGAUCACCCAUGUAGAGA [ss-argA-N]
- apparent KD of MS2 coat protein (input ligand: arginine 13.2 mM): 34.1 nM
- apparent KD of MS2 coat protein (input ligand: none): 41.1 nM
- apparent KD of MS2 coat protein [1]: 45.9 nM
- apparent KD of MS2 coat protein [3]: 45.1 nM
- apparent KD of MS2 coat protein [2]: 40.9 nM

Sequence: CCAUAAGUACCGGUCCUCAGAUCCUCAUGACGAGGACCGGUACGGCCGCCACUCGAAACAUGAGGAUCACCCAUGUAAUAAUACC [Brourdmod18]
- apparent KD of MS2 coat protein (input ligand: arginine 13.2 mM): 26.4 nM
- apparent KD of MS2 coat protein [1]: 101 nM
- apparent KD of MS2 coat protein [3]: 97.6 nM
